Source: PMC5789857

Target: TBEV envelope protein (E-protein), strain Hypr, in the purified virion (tick-borne encephalitis virus, strain Hypr) (UniProt Q01299)
Test: cryo-EM structure

## TBEV envelope protein (E-protein), strain Hypr, in the purified virion (from UniProt Q01299) (natural protein)
  stoichiometry N: 2
